The conditions of the data set: Katsuwonus pelamis, pH 7.5, 25 °C, GdnHCl, CD, Tris 20 mM, NaCl 40 mM, reversible: yes.

Experimental findings from FireProtDB (doi:10.1021/bi00052a024) are described below.

Sequence of Cytochrome c K74F, P00025 (P00025 whole entry K74F): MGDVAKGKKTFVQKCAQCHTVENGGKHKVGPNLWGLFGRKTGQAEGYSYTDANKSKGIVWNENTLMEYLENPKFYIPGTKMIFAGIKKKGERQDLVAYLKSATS
Sequence of Cytochrome c K74Y, P00025 (P00025 whole entry K74Y): as the sequence (P00025 whole entry K74F) above, with F74Y counted along it
Sequence of Cytochrome c wild type, P00025 (P00025 whole entry): as the sequence (P00025 whole entry K74F) above, with F74K counted along it
Sequence of Cytochrome c K74W, P00025 (P00025 whole entry K74W): as the sequence (P00025 whole entry K74F) above, with F74W counted along it
Sequence of Cytochrome c K74M, P00025 (P00025 whole entry K74M): as the sequence (P00025 whole entry K74F) above, with F74M counted along it

As for Cytochrome c K74M, P00025, where the note is “structure 1CYC”, the “ddG of mutation (higher = less stable)” value came to 1 kcal/mol, the denaturant m value was 4.43 kcal/mol/M, the “denaturant midpoint (higher = more stable)” value (“denaturant midpoint” below) was determined as 1 M and the unfolding free energy stood at 4.66 kcal/mol.

Consider Cytochrome c K74W, P00025, for which, where the note is “structure 1CYC”, the “ddG of mutation (higher = less stable)” value worked out at 1.43 kcal/mol, the denaturant m value was 4.16 kcal/mol/M, the “denaturant midpoint” value was determined as 1 M and the unfolding free energy was 4.23 kcal/mol.

With Cytochrome c K74Y, P00025, where the note is “structure 1CYC”, the “ddG of mutation (higher = less stable)” value was 1.05 kcal/mol, the denaturant m value came to 4.62 kcal/mol/M, the “denaturant midpoint” value amounted to 1 M and the unfolding free energy is 4.61 kcal/mol.

Regarding Cytochrome c wild type, P00025, the denaturant m value is 4.87 kcal/mol/M, the “denaturant midpoint” value was determined as 1.16 M and the unfolding free energy came out at 5.66 kcal/mol.

On to Cytochrome c K74F, P00025, for which, where the note is “structure 1CYC”, the “ddG of mutation (higher = less stable)” value was 1.15 kcal/mol, the denaturant m value was determined as 4.44 kcal/mol/M, the “denaturant midpoint” value stood at 1 M and the unfolding free energy stood at 4.51 kcal/mol.
